Read-outs that look alike come from different tables or passages of the source.
Key:
Assay in all cases: FRET or BRET
FRET or BRET [1] = molecular target: the molecule itself
FRET or BRET [2] = molecular target: the molecule itself; remark: listed apart in the source
FRET or BRET [3] = molecular target: the molecule itself; remark: listed apart in the source
FRET or BRET [4] = molecular target: the molecule itself; remark: listed apart in the source
FRET or BRET [5] = molecular target: the molecule itself; remark: listed apart in the source

B1: CYP2E1-BODIPY(1:2): N-terminally truncated (Δ3–20), C-terminally His-tagged CYP2E1 labeled with BODIPY 577/618 maleimide at 1:2 protein-to-label ratio (enzyme, human, UniProt P05181 1-493, looked up)
chain: MSSMWRQVHSSWNLPPGPFPLPIIGNLFQLELKNIPKSFTRLAQRFGPVFTLYVGSQRMVVMHGYKAVKEALLDYKDEFSGRGDLPAFHAHRDRGIIFNNGPTWKDIRRFSLTTLRNYGMGKQGNESRIQREAHFLLEALRKTQGQPFDPTFLIGCAPCNVIADILFRKHFDYNDEKFLRLMYLFNENFHLLSTPWLQLYNNFPSFLHYLPGSHRKVIKNVAEVKEYVSERVKEHHQSLDPNCPRDLTDCLLVEMEKEKHSAERLYTMDGITVTVADLFFAGTETTSTTLRYGLLILMKYPEIEEKLHEEIDRVIGPSRIPAIKDRQEMPYMDAVVHEIQRFITLVPSNLPHEATRDTIFRGYLIPKGTVVVPTLDSVLYDNQEFPDPEKFKPEHFLNENGKFKYSDYFKPFSTGKRVCAGEGLARMELFLLLCAILQHFNLKPLVDPKDIDLSPIHIGFGCIPPRYKLCVIPRS
modifications: BODIPY 577/618 maleimide on cysteines, two molar equivalents (presumably Cys488 and Cys261, Cys268 and/or Cys480)
FRET or BRET [1]
  (Lipid/CYP2E1)50%: 2440 lipid-to-P450 molar ratio
FRET or BRET [2]
  (Lipid/CYP2E1)50%: 393 lipid-to-P450 molar ratio
FRET or BRET [3]
  (Lipid/CYP2E1)50%: 383 lipid-to-P450 molar ratio
FRET or BRET [4]
  (Lipid/CYP2E1)50%: 5890 lipid-to-P450 molar ratio
FRET or BRET [5]
  (Lipid/CYP2E1)50%: 4320 lipid-to-P450 molar ratio

— publication PMC7085345 (The Biochemical journal, 2019)
